The values that follow come from article PMC11640315.

This test deals with Retinoid X receptor of turbot, HA-tagged (pcDNA3.1-RXR-HA) (turbot (Scophthalmus maximus)).

On to “Farnesoid X receptor of turbot, Flag-tagged (pcDNA3.1-FXR-Flag)”, for which the activity of the SHP promoter, dual-luciferase reporter assay in HEK293 cells; co-transfection of FXR and RXR plasmids against the FXR plasmid is 3 times.
